Measurements as given in patent US8987192B2, “Potent and selective mediators of cholesterol efflux” (The Regents of the University of California, priority 2006, dated 2015).
Entries after “also recorded” stand apart in the source; their conditions may differ. Where no end group is shown, it is not given here. [ ]: non-standard residue; d: D form.

B1: inverted sequence peptide of SEQ ID NO:20, all D-amino acids (peptide)
peptide: [dS][dK][dL][dR][dA][dL][dF][dE][dE][dA][dF][dE][dR][dF][dA][dA][dF][dW][dE][dE][dL][dK][dS][dR][dV][dE]
B2: polypeptide of SEQ ID NO:4 composed of all D-amino acids (peptide)
peptide: [dE][dV][dR][dS][dK][dL][dE][dE][dW][dF][dA][dA][dF][dR][dE][dF][dA][dE][dE][dF][dL][dA][dR][dL][dK][dS]
B3: R3, 14, 23→K3, 14, 23 analog of the polypeptide of SEQ ID NO:5 (peptide)
peptide: EVKSKLEEWFAAFKEFFEEFLAKLKS
B4: inverted sequence peptide of SEQ ID NO:20, all L-amino acids (peptide)
peptide: SKLRALFEEAFERFAAFWEELKSRVE
B5: 24-mer core peptide of SEQ ID NO:4 with the S4>A substitution (peptide)
peptide: EVRAKLEEWFAAFREFAEEFLARL
B6: E8, 15>D analog of the polypeptide of SEQ ID NO:5 (peptide)
peptide: EVRSKLEDWFAAFRDFFEEFLARLKS
B7: 24-mer polypeptide of SEQ ID NO:5 lacking Lys25-Ser26 (peptide)
peptide: EVRSKLEEWFAAFREFFEEFLARL
B8: S4, 26>A analog of the polypeptide of SEQ ID NO:4 (peptide)
peptide: EVRAKLEEWFAAFREFAEEFLARLKA
B9: E1, 7, 8, 15, 18, 19>D analog of the polypeptide of SEQ ID NO:5 (peptide)
peptide: DVRSKLDDWFAAFRDFFDDFLARLKS
B10: S26>Y analog of the polypeptide of SEQ ID NO:4 (peptide)
peptide: EVRSKLEEWFAAFREFAEEFLARLKY

What was measured:
[1] = scaled values = (raw log(P) + 2.061)/4.484; cited from earlier work
ABCA1 [2] = assay: Cholesterol efflux in the absence and presence of ABCA1 (mouse macrophages and HeLa cells transfected with ABCA1 cDNA); format: cell-based; conditions: 8 hours, saturating peptide >30-fold Km; for requirement of ABCA1 for cholesterol efflux activity: mouse macrophages and ABCA1-transfected HeLa
Source text: The large excess of polypeptide was provided to determine the extent (if any) of non-specific efflux, in the absence of ABCA1 induction.

ABCA1 [3] = target: ABCA1 (Mus musculus, UniProt P41233); assay: Cholesterol efflux from [3H]cholesterol-labeled ABCA1-expressing J774 mouse macrophages; format: cell-based; design: to upregulate cellular ABCA1 protein; endogenous in cells; host or cells: J774 mouse macrophages; conditions: for cholesterol efflux efficiency/potency on per molecule (molar) basis versus apolipoproteins: Km in molar units; for efficiency of ABCA1 cholesterol efflux (concentration dependence): concentration dependence curves; for capacity to stimulate cholesterol efflux at 3 μg/ml: 3 μg/ml lipid-free peptide, ABCA1-expressing macrophages; for ABCA1-dependent cholesterol efflux: macrophages with vs without cAMP
Sequence of ABCA1 (Mus musculus, UniProt P41233) (P41233 whole entry): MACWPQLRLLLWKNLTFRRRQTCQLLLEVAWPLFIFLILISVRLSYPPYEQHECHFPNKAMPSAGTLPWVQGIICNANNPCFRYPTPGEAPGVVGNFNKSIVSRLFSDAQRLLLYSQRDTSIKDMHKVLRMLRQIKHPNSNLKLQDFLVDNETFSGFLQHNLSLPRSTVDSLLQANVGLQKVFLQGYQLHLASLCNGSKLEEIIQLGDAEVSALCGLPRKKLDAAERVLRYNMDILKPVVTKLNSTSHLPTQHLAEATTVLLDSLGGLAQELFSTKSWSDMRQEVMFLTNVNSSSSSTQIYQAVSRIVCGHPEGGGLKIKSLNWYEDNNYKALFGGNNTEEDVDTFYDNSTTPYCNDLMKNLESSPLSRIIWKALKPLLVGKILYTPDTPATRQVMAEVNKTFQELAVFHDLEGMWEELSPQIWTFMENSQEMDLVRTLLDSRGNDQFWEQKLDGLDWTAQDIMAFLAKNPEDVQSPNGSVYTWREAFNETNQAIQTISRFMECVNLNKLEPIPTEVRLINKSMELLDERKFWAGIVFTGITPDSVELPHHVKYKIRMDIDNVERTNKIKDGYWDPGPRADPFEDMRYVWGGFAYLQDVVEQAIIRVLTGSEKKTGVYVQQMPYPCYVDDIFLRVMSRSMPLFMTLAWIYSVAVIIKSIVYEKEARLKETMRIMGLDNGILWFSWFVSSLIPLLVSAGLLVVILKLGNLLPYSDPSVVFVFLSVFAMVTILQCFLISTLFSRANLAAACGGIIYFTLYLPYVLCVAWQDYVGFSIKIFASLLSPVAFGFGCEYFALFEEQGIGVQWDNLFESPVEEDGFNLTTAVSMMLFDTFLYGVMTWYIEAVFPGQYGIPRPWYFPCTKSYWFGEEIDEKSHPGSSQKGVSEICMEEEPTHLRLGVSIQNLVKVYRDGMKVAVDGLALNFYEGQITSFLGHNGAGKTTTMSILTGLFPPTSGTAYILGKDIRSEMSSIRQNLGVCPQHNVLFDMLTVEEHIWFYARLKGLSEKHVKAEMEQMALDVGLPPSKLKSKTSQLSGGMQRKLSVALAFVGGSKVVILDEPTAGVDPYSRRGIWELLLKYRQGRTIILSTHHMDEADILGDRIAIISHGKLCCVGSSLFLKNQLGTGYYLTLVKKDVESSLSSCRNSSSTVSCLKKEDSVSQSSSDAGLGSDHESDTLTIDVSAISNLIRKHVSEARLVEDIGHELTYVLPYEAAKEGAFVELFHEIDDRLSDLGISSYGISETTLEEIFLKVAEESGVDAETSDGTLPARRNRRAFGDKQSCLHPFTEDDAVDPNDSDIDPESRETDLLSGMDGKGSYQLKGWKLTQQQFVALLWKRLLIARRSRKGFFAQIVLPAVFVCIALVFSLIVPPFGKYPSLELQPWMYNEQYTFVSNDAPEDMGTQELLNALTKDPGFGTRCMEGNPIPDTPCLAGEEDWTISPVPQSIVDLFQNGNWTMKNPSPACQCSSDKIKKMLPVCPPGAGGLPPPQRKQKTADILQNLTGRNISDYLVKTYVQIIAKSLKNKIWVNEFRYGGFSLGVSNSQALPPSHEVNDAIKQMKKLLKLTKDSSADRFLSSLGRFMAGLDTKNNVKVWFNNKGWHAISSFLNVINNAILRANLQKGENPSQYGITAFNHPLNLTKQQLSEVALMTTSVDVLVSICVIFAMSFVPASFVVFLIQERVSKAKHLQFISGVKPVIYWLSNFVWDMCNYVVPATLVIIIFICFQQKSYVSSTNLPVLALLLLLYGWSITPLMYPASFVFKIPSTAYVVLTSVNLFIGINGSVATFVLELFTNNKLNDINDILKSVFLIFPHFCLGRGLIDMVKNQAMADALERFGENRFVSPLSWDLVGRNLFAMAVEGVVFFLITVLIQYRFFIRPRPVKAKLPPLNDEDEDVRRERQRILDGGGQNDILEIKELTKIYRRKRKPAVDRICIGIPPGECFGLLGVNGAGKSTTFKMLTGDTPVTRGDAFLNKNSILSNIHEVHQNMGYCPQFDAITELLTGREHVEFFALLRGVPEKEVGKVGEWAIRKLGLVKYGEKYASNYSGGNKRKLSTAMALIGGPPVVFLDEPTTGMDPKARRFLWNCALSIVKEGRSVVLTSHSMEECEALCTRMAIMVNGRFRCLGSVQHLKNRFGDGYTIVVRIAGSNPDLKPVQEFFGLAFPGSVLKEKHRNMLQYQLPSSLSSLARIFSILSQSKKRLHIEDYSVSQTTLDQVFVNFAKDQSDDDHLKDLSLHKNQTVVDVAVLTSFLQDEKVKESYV
Method: In some embodiments, a polypeptide known to mediate cholesterol efflux (e.g., helix 9/10 of Apo A-I) is used to screen for additional mediators of cholesterol efflux in a cell based assay. For example, cell lines in which cholesterol efflux can be enhanced using a cAMP analog that up-regulates ABCA1 protein expression (e.g., J774 macrophages) can conveniently be used to assess the ability of a polypeptide of the present invention to mediate cholesterol efflux. The cells are incubated with labeled cholesterol (e.g., [^3H]cholesterol) under conditions appropriate for cholesterol uptake by the cells. Thus, cAMP or cAMP analogs (e.g., CPT-cAMP) are incubated with the cells for a suitable time before the initiation of cellular cholesterol efflux, i.e., prior to contacting the cells with a test polypeptide. Measurement of labeled cholesterol appearing in the medium is used to determine the cholesterol efflux mediating activity of the test polypeptide.
J774 mouse macrophages labeled with [^3H]cholesterol were treated (20 h) with 22-hydroxycholesterol (10 μM)/cis-retinoic acid (10 μM) to upregulate cellular ABCA1 protein.
Mouse macrophages were labeled with [^3H]cholesterol and treated with a cAMP analog to induce ABCA1 expression. […] Km values were calculated using the Michaelis-Menton equation and GraphPad Prism4 software.
Inverted sequence peptides synthesized with all L-amino acids and all D-amino acids were tested for cholesterol efflux activity using ABCA1 expressing J774 macrophages.
Two peptide analogs were engineered; the first replacing glutamic acid residues (E) at position 8 and 15 with aspartic acid residues (D), i.e., E8, 15>D polypeptides, and the second, replacing E1, 7, 8, 15, 18, 19 with D, i.e., all D (Asp) polypeptide. Cholesterol efflux activity was determined using J774 macrophages treated with and without a cAMP analog to modulate ABCA1 expression.
The impact of the A12>L substitution was also tested for activity, which also expanded non-polar surface area.
1-palmitoyl-2-oleoyl-phosphatidylcholine (POPC) was used to evaluate the cholesterol efflux properties of a formulated polypeptide of the present invention. […] To test cholesterol efflux activity, J774 mouse macrophages were labeled with [^3H]cholesterol and treated with and without cAMP to modulate ABCA1 expression.

[4] = target: ABCA1 of J774 mouse macrophages (mouse, UniProt P41233 1-2261); assay: cell-based or functional assay
Sequence of ABCA1 of J774 mouse macrophages (P41233 whole entry): as above

Molecule	Hydrophobicity [1]	cholesterol efflux: concentration giving maximal efflux [4] [µg/mL]	other results
C[C@H](N)C(=O)O [Alanine]	0.616	–	–
NCCCC[C@H](N)C(=O)O [Lysine]	0.283	–	–
N[C@@H](Cc1c[nH]c2ccccc12)C(=O)O [Tryptophan]	0.878	–	–
CSCC[C@H](N)C(=O)O [Methionine]	0.738	–	–
EVRSKLEEWFAAFREFFEEFLARLKS (S1 amphipathic alpha-helix polypeptide core sequence selectively binds HDL, high-affinity ligand for ATP- binding cassette transporter A1 (ABCA1), ABCA1-lipid cholesterol efflux, ABCA1-stablization, anti-oxidant and anti-inflammatory activity) [SEQ ID NO:5]	–	–	non-specific efflux activity in the absence of ABCA1 (ABCA1 [2]): minimal; requirement of ABCA1 for cholesterol efflux activity (ABCA1 [2]): required ABCA1 for efflux activity; cholesterol efflux efficiency/potency on per molecule (molar) basis versus apolipoproteins (ABCA1 [3]): activity similar to full-length Apo A-I, Apo E, and the C-terminal (CT) domain of Apo E; cholesterol efflux from macrophages not induced for ABCA1 (non-specific) (ABCA1 [3]; no cAMP): Low efflux
NC(=O)C[C@H](N)C(=O)O [Asparagine]	0.236	–	–
N[C@@H](Cc1ccccc1)C(=O)O [Phenylalanine]	1.00	–	–
N[C@@H](CCC(=O)O)C(=O)O [Glutamate]	0.043	–	–
Apo A-I: full-length Apolipoprotein AI, polypeptide comprising 243 amino acids	–	–	requirement of ABCA1 for cholesterol efflux activity (ABCA1 [2]): required ABCA1 for activity; cholesterol efflux at low mass concentrations (ABCA1 [3]; increasing concentrations based on mass): largely ineffective
CC(C)[C@H](N)C(=O)O [Valine]	0.825	–	–
R23→Q: SEQ ID NO:5 with arginine 23 replaced by glutamine (EVRSKLEEWFAAFREFFEEFLAQLKS; S1 amphipathic alpha-helix polypeptide core sequence selectively binds HDL, high-affinity ligand for ATP- binding cassette transporter A1 (ABCA1), ABCA1-lipid cholesterol efflux, ABCA1-stablization, anti-oxidant and anti-inflammatory activity)	–	–	ABCA1-dependent cholesterol efflux at 30 μg/ml (ABCA1 [3]; 30 μg/ml peptide): mediated cholesterol efflux in an ABCA1 dependent manner; efficiency of ABCA1 cholesterol efflux (concentration dependence) (ABCA1 [3]): high efficiency
NCC(=O)O [Glycine]	0.501	–	–
EVRSKLEEWFAAFREFFEEFLARL (amphipathic alpha-helix polypeptide core sequence selectively binds HDL, high-affinity ligand for ATP- binding cassette transporter A1 (ABCA1), ABCA1-lipid cholesterol efflux, ABCA1-stablization, anti-oxidant and anti-inflammatory activity) [24-mer]	–	–	capacity to stimulate cholesterol efflux at 3 μg/ml (ABCA1 [3]): retained high capacity to stimulate cholesterol efflux; also recorded: retained high activity; efficiency of ABCA1 cholesterol efflux (concentration dependence) (ABCA1 [3]): high efficience; ABCA1-dependent cholesterol efflux (ABCA1 [3]): stimulated cholesterol efflux in an ABCA1-dependent manner
N=C(N)NCCC[C@H](N)C(=O)O [Arginine]	0.000	–	–
O=C(O)[C@@H]1CCCN1 [Proline]	0.711	–	–
EFRSKLEEWFAAFREFFEEFLARLKS (S2 amphipathic alpha-helix polypeptide core sequence selectively binds HDL, high-affinity ligand for ATP- binding cassette transporter A1 (ABCA1), ABCA1-lipid cholesterol efflux, ABCA1-stablization, anti-oxidant and anti-inflammatory activity) [SEQ ID NO:6]	–	–	cholesterol efflux efficiency/potency on per molecule (molar) basis versus apolipoproteins (ABCA1 [3]): activity similar to full-length Apo A-I, Apo E, and the C-terminal (CT) domain of Apo E
E1, 7, 8, 15, 18, 19>D: SEQ ID NO:5 with E1, 7, 8, 15, 18, 19 replaced with D (DVRSKLDDWFAAFRDFFDDFLARLKS; S1 amphipathic alpha-helix polypeptide core sequence selectively binds HDL, high-affinity ligand for ATP- binding cassette transporter A1 (ABCA1), ABCA1-lipid cholesterol efflux, ABCA1-stablization, anti-oxidant and anti-inflammatory activity)	–	–	ABCA1-dependent cholesterol efflux (ABCA1 [3]): retained high capacity to stimulate cholesterol efflux in an ABCA1-dependent manner

Molecule	Hydrophobicity [1]	cholesterol efflux: concentration giving maximal efflux [4] [µg/mL]	other results
22-mer: SEQ ID NO:5 truncated from the C-terminal end to 22 residues (EVRSKLEEWFAAFREFFEEFLA; S1 amphipathic alpha-helix polypeptide core sequence selectively binds HDL, high-affinity ligand for ATP- binding cassette transporter A1 (ABCA1), ABCA1-lipid cholesterol efflux, ABCA1-stablization, anti-oxidant and anti-inflammatory activity)	–	–	capacity to stimulate cholesterol efflux at 3 μg/ml (ABCA1 [3]): weakly active
CC[C@H](C)[C@H](N)C(=O)O [Isoleucine]	0.943	–	–
N[C@@H](Cc1c[nH]cn1)C(=O)O [Histidine]	0.165	–	–
C[C@@H](O)[C@H](N)C(=O)O [Threonine]	0.450	–	–
N[C@@H](Cc1ccc(O)cc1)C(=O)O [Tyrosine]	0.880	–	–
25-mer: SEQ ID NO:5 lacking the C-terminal Ser26 (EVRSKLEEWFAAFREFFEEFLARLK; S1 amphipathic alpha-helix polypeptide core sequence selectively binds HDL, high-affinity ligand for ATP- binding cassette transporter A1 (ABCA1), ABCA1-lipid cholesterol efflux, ABCA1-stablization, anti-oxidant and anti-inflammatory activity)	–	–	capacity to stimulate cholesterol efflux at 3 μg/ml (ABCA1 [3]): retained high capacity to stimulate cholesterol efflux; also recorded: retained high activity
B1	–	3	–
B2	–	3	–
B3	–	3	–
B4	–	3	–
B5	–	3	–
B6	–	3	–
B7	–	3	–
B8	–	3	–
B9	–	3	–
B10	–	3	–
